Data taken from patent publication US10435456B2, “Compositions and methods for increasing the expression and signalling of proteins on cell surfaces” (THE JOHNS HOPKINS UNIVERSITY, priority 2014, dated 2019).
Entries after “also recorded” stand apart in the source; their conditions may differ.

Legend:
mOREG = biological target: T1, mOREG (Mus musculus, UniProt Q920P2); assay: CRE luciferase reporter assay (Firefly:Renilla), mOREG constructs; assay type: cell-based, murine; conditions: Rho-mOREG, Lucy-mOREG, no RTP1S, 100-300 μM eugenol
T1 construct: The mOR-EG full-length construct, containing N-terminal Flag/Rho tags, was a kind gift from Kazushige Touhara; only in the L-EG and L-R-EG constructs) (N, cleaved yes); expressed in transfected cells; host or cells: HEK293T
T1 sequence (Q920P2 1-313): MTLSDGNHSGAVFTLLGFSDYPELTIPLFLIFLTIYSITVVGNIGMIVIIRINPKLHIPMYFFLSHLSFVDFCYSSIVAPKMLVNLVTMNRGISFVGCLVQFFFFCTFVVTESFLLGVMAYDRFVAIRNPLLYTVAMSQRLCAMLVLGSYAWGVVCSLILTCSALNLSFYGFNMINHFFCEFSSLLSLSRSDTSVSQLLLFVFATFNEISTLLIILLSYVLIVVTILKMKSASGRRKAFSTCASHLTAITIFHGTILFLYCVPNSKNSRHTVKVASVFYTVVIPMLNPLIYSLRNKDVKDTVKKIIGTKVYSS
Method: The luciferase assay was performed as previously described. Briefly, ORs were transfected into HEK293T cells along with constructs encoding for CREB-dependent luciferase (Firefly) and a constitutively expressed luciferase (Renilla). OR activation leads to a rise in cAMP which drives an increase in Firefly luciferase expression. Firefly activity is normalized to the activity of the Renilla luciferase to control for variation in cell number and transfection efficiency. Data were collected using a FLUOstar Omega automated platereader (BMG LabTech, Cary, N.C.). For some experiments, RTP1S was also transfected.
As mOREG is one of the ORs that reach the cell surface under every condition tested, we expressed the OR with and without the Lucy and Rho tags and assessed its response to eugenol.

Olfr691 = biological target: T2, Olfr691 (Mus musculus, UniProt Q8VGW5); assay: CRE luciferase reporter assay (Firefly:Renilla), Olfr691 constructs; conditions: 0.1-5 mM isovaleric acid
T2 sequence (Q8VGW5 1-322): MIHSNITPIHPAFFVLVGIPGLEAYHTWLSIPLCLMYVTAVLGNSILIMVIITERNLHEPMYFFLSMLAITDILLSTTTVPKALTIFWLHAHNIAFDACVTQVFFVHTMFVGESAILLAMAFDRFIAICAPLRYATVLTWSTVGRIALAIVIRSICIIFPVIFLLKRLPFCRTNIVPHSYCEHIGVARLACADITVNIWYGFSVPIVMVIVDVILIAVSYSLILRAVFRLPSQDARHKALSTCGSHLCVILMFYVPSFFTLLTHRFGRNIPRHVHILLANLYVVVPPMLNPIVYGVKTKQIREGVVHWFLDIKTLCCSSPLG

murine Gpr160 = assay: Surface expression of murine Gpr160; assay type: cell-based; conditions: HEK293T cells
human GPR160 = assay: Surface expression of human GPR160; assay type: cell-based; conditions: HEK293T cells
HEK293T cells = assay: Surface immunocytochemistry of Flag-tagged olfactory receptor constructs; assay type: cell-based; parameters: key to OR surface expression (trafficking): −: No detectable OR surface expression; +: OR surface expression detected in the majority of fields of view (>90% of all fields of view); *: OR surface expression detected in a minority of fields of view (<50% of all fields of view); conditions: for OR surface expression (trafficking): HEK293T
Method: HEK293T cells were seeded onto 18-mm coverslips coated with poly-L-lysine and transfected with OR constructs with or without accessory proteins (Lipofectamine 2000, Invitrogen). Flag-tagged OR trafficking was assayed using surface immunocytochemistry, as previously described. Briefly, live, non-permeabilized cells at 4° C. were exposed to a rabbit polyclonal anti-Flag antibody in PBS with 0.1% BSA. Subsequently, cells were washed, fixed with 4% paraformaldehyde, permeabilized (0.3% Triton X-100) and then exposed to a mouse monoclonal (M2) anti-Flag antibody. As the external Flag epitope (surface Flag) epitope is ‘blocked’ after binding to the polyclonal Flag antibody, the monoclonal Flag antibody detects only the internal population of ORs. […] Fluorescent secondary antibodies reported the localization of the polyclonal and monoclonal Flag-tags. Cells were visualized for epifluorescence using a Zeiss Axiophot microscope (Thornwood, N.Y.). Images were taken with a CoolSnap Digita Camera (Photometrics, Tucson, Ariz.) and IP Labs software (Biovision, Exton, Pa.). For some experiments, a total of 0.8 μg of accessory plasmids (pcDNA3-RTP1S (modified from RTP1L, kind gift from S. Firestein, Columbia Univ.), pCMV Sport6-Ric8b (purchased from Open Biosystems), and pcDNA3.1-Gαolf (subcloned from a pGEMHE2 Gαolf construct, kind gift from S. Firestein, Columbia Univ.)) or 0.8 μg of an empty pcDNA4.1 vector (OR alone) were co-transfected along with 0.8 μg of the OR. In FIGS. 1 and 2, the immunofluorescent images shown in each row (OR, Rho-OR, Lucy-OR and Lucy-Rho-OR with and without accessory proteins) were transfected and processed simultaneously and image exposures remained constant for each OR. Images represent representative fields of view from at least 4 independent experiments. To assess OR surface expression, the entirety of each coverslip was systematically scanned and scored based on detectable surface immunofluorescence. A ‘+’ was scored for those ORs whose surface expression was detectable in >90% of all fields of view while ORs received an ‘*’ if surface expression was found in <50% of all fields of view. A complete lack of detectable surface expression was scored as a ‘−’. To quantitate cell surface expression using ImageJ (FIG. 14), the background was subtracted from the surface labeled Olfr691 images and the mean fluorescence intensity was measured. The mean intensity was normalized to the mean intensity of the corresponding binary nuclear image, to control for cell number.
ORs were cloned and co-expressed in HEK293T cells without Rho or Lucy tags (OR), with a Rho tag (Rho-OR), with the Lucy tag (Lucy-OR) or with both the Lucy and Rho tags (Lucy-Rho-OR) along with (or without) the chaperone proteins, RTP1S, Ric8b and Gαolf. The cells were then surface labeled with a Flag antibody to detect membrane-associated OR. Images were taken for each OR at equal exposure for all conditions. To assess OR surface expression, the entirety of each coverslip was systematically scanned and scored based on detectable surface immunofluorescence. A ‘+’ was scored for those ORs whose surface expression was detectable in >90% of all fields of view while ORs received an ‘*’ if surface expression was found in <50% of all fields of view. A complete lack of detectable surface expression was scored as a ‘−’.
Many ORs remain orphan receptors due to their inability to traffic in in vitro assays. To establish the trafficking ability of a varied group of ORs, we cloned 15 diverse ORs, the majority of which are orphan receptors which have not been previously reported to reach the cell surface. Live, non-permeabilized HEK 293T cells were surface labeled with a Flag antibody to detect membrane associated receptor and OR surface expression was scored based on detectable surface immunofluorescence. […]

[1] = column 1: OR (Flag tag only, no Rho or Lucy tag), chaperones none
[2] = column 2: OR (Flag tag only), with RTP1S, Ric8b, Gαolf
[3] = column 3: Rho-OR, chaperones none
[4] = column 4: Rho-OR, with RTP1S, Ric8b, Gαolf
[5] = column 5: Lucy-OR, chaperones none
[6] = column 6: Lucy-OR, with RTP1S, Ric8b, Gαolf
[7] = column 7: Lucy-Rho-OR, chaperones none
[8] = column 8: Lucy-Rho-OR, with RTP1S, Ric8b, Gαolf

**Q.** For `C=CCc1ccc(O)c(OC)c1` [eugenol], which “OR activation (Firefly:Renilla ratio)” value (mOREG) is on record?
**A.** dose-dependent activation; also recorded: significantly activated

**Q.** How did the “OR activation (Firefly:Renilla ratio)” value (Olfr691; Lucy-Rho-Olfr691 with and without RTP1S) turn out when `CC(C)CC(=O)O` [isovaleric acid] was run?
**A.** responded to isovaleric acid in a dose-dependent manner

**Q.** And the “OR activation (Firefly:Renilla ratio)” value (Olfr691; Rho-Olfr691 co-expressed with RTP1S)?
**A.** dose-dependent increase in the Firefly: Renilla ratio

**Q.** And the “OR activation (Firefly:Renilla ratio)” value (Olfr691; Rho-Olfr691 without RTP1S)?
**A.** not significantly activated at any concentration; also recorded: no concentrations of isovaleric acid activated R-691

**Q.** What does the source list for “Lucy tag: 17-amino acid cleavable signal peptide from LRRC32, MRPQILLLLALLTLGLA (SEQ ID NO:3) (Amino acid sequence of Lucy tag)”?
**A.** surface expression of murine Gpr160 (murine Gpr160): promotes surface expression; surface expression of human GPR160 (human GPR160): promotes surface expression

B1: hOR51E2: human olfactory receptor, Flag-tagged construct (protein, UniProt Q9H255 1-320, looked up)
Olfactory receptor 51E2: MSSCNFTHATFVLIGIPGLEKAHFWVGFPLLSMYVVAMFGNCIVVFIVRTERSLHAPMYLFLCMLAAIDLALSTSTMPKILALFWFDSREISFEACLTQMFFIHALSAIESTILLAMAFDRYVAICHPLRHAAVLNNTVTAQIGIVAVVRGSLFFFPLPLLIKRLAFCHSNVLSHSYCVHQDVMKLAYADTLPNVVYGLTAILLVMGVDVMFISLSYFLIIRTVLQLPSKSERAKAFGTCVSHIGVVLAFYVPLIGLSVVHRFGNSLHPIVRVVMGDIYLLLPPVINPIIYGAKTKQIRTRVLAMFKISCDKDLQAVGGK
modifications: Flag tag
notes: human olfactory receptor, Flag-tagged construct
**Q.** What does the source list for B1?
**A.** OR surface expression (trafficking) (HEK293T cells; [1]): + (OR surface expression detected in the majority of fields of view (>90% of all fields of view)); OR surface expression (trafficking) (HEK293T cells; [2]): + (OR surface expression detected in the majority of fields of view (>90% of all fields of view)); OR surface expression (trafficking) (HEK293T cells; [3]): + (OR surface expression detected in the majority of fields of view (>90% of all fields of view)); OR surface expression (trafficking) (HEK293T cells; [4]): + (OR surface expression detected in the majority of fields of view (>90% of all fields of view)); OR surface expression (trafficking) (HEK293T cells; [5]): + (OR surface expression detected in the majority of fields of view (>90% of all fields of view)); OR surface expression (trafficking) (HEK293T cells; [6]): + (OR surface expression detected in the majority of fields of view (>90% of all fields of view)); OR surface expression (trafficking) (HEK293T cells; [7]): + (OR surface expression detected in the majority of fields of view (>90% of all fields of view)); OR surface expression (trafficking) (HEK293T cells; [8]): + (OR surface expression detected in the majority of fields of view (>90% of all fields of view))

B2: hOR52B2: human homologue of Olfr691, Flag-tagged construct (protein, UniProt Q96RD2 1-323, looked up)
Olfactory receptor 52B2: MSHTNVTIFHPAVFVLPGIPGLEAYHIWLSIPLCLIYITAVLGNSILIVVIVMERNLHVPMYFFLSMLAVMDILLSTTTVPKALAIFWLQAHNIAFDACVTQGFFVHMMFVGESAILLAMAFDRFVAICAPLRYTTVLTWPVVGRIALAVITRSFCIIFPVIFLLKRLPFCLTNIVPHSYCEHIGVARLACADITVNIWYGFSVPIVMVILDVILIAVSYSLILRAVFRLPSQDARHKALSTCGSHLCVILMFYVPSFFTLLTHHFGRNIPQHVHILLANLYVAVPPMLNPIVYGVKTKQIREGVAHRFFDIKTWCCTSPLGS
modifications: Flag tag
notes: human homologue of Olfr691, Flag-tagged construct
**Q.** How did the “OR surface expression (trafficking)” value (HEK293T cells; [1]) turn out when B2 was run?
**A.** −

**Q.** What about the “OR surface expression (trafficking)” value (HEK293T cells; [2]) of the same molecule?
**A.** −

**Q.** What about the “OR surface expression (trafficking)” value (HEK293T cells; [3]) of the same molecule?
**A.** −

**Q.** What about the “OR surface expression (trafficking)” value (HEK293T cells; [4]) of the same molecule?
**A.** −

**Q.** And the “OR surface expression (trafficking)” value (HEK293T cells; [5])?
**A.** + (OR surface expression detected in the majority of fields of view (>90% of all fields of view))

**Q.** What about the “OR surface expression (trafficking)” value (HEK293T cells; [6]) of the same molecule?
**A.** + (OR surface expression detected in the majority of fields of view (>90% of all fields of view))

**Q.** What about the “OR surface expression (trafficking)” value (HEK293T cells; [7]) of the same molecule?
**A.** + (OR surface expression detected in the majority of fields of view (>90% of all fields of view))

**Q.** What about the “OR surface expression (trafficking)” value (HEK293T cells; [8]) of the same molecule?
**A.** + (OR surface expression detected in the majority of fields of view (>90% of all fields of view))

**Q.** And the “surface trafficking, Rho-tagged vs Lucy-Rho-tagged OR, in words” value (HEK293T cells; no accessory proteins, 24 h transfection)?
**A.** traffic to the surface with but not without the Lucy tag
